What was measured:
Test in all cases: SPR
tCid1 (wild type) = biological target: T1, tCid1 (wild type) (Schizosaccharomyces pombe, UniProt O13833 33-405)
T1 sequence: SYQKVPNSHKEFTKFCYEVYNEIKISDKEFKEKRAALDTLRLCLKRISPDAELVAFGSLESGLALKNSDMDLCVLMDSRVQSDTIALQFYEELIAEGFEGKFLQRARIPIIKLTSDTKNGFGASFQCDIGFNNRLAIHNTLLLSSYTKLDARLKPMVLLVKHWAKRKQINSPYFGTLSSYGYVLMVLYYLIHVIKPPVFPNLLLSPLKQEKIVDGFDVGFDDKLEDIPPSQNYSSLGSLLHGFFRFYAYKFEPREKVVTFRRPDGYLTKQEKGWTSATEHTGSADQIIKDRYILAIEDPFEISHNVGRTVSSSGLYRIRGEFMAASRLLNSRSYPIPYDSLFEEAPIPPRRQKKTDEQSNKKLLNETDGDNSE

tCid1 mutant 1 = biological target: T2, tCid1 mutant 1 (Schizosaccharomyces pombe, UniProt O13833 33-405, K133A;R137A)
T2 sequence: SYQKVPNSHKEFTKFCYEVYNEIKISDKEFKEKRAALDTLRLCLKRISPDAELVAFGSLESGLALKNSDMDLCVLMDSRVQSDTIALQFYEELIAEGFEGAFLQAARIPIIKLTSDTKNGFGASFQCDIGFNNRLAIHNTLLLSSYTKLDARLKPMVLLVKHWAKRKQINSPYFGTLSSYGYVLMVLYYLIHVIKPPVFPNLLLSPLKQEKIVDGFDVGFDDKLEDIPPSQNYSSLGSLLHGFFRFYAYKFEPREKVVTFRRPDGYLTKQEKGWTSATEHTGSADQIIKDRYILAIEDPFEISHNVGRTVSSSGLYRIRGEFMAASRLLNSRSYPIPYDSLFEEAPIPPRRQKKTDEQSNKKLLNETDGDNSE

tCid1 mutant 2 = biological target: T3, tCid1 mutant 2 (Schizosaccharomyces pombe, UniProt O13833 33-405, K321A;R323A)
T3 sequence: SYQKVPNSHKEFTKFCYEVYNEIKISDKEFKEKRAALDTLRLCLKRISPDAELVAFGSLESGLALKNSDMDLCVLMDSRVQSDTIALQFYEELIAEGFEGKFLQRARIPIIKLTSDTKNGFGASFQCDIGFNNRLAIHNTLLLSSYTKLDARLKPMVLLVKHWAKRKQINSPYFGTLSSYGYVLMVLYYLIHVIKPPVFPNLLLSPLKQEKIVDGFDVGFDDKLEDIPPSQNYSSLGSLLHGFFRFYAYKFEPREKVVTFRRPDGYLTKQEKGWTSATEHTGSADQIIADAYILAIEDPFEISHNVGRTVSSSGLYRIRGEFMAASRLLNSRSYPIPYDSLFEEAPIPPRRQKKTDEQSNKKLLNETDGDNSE

tCid1 mutant 3 = biological target: T4, tCid1 mutant 3 (Schizosaccharomyces pombe, UniProt O13833 33-405, R277A;K282A)
T4 sequence: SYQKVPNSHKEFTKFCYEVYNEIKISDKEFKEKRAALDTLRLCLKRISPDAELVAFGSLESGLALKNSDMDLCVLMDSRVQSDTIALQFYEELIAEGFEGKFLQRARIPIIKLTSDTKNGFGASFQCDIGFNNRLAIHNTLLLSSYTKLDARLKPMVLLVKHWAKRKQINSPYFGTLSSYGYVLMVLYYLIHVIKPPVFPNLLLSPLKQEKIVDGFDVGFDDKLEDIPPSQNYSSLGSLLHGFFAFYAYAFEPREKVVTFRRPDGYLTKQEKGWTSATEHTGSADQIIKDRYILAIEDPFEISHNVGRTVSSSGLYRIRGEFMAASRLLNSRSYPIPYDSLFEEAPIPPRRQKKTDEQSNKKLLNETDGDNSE

GAUUUGACGUUGGUUUUGACG (ssRNA) [21 nt SPR RNA]
Kd (tCid1 (wild type)): ~100 nM | Kd (tCid1 mutant 1): ~200 nM | Kd (tCid1 mutant 2): ~450 nM | Kd (tCid1 mutant 3): ~410 nM

— PMC4342108
